Measurements as given in US7579150B1, “Mobile RNA acts as a signal to regulate plant growth and development” (Iowa State University Research Foundation, Inc., priority 2004, dated 2009).

The molecules below were run on POTH1 (assay: Yeast two-hybrid interaction with POTH1 (nutritional selection, beta-galactosidase)). Details: yeast strain AH109, nutritional markers and lacZ.
Assay type: cell-based, potato
Source text: The Matchmaker two-hybrid system (Clontech, CA) was used for the yeast two-hybrid screen. Yeast transformation and plasmid rescue into DH5-a E. coli cells were according to the manufacturer's instructions. Full-length POTH1 was cloned into the pBridge (Clontech, CA) vector and used as bait to screen the potato (S. tuberosum ‘Desireé’) stolon cDNA library in pAD-GAL4-2.1 (Stratagene, Calif.). Positive interactions were confirmed by cotransforming yeast strain AH109 with each purified pAD plasmid and pBridge: POTH1 and plating on -leucine/-tryptophan (transformation control) and -leucine/-tryptophan/-histidine/-adenine (selection) nutrient medium. Induction of the AH109 reporter gene, lacZ, was measured with a yeast β-galactosidase assay kit (Pierce Chemicals). β-galactosidase activity (FIG. 9B) was determined from a known density of yeast cells and calculated as 1000×OD420/time of color reaction (minutes)×volume of yeast culture (ml)×OD600.
The StBEL-05 deletion constructs were amplified by PCR, then cloned into the vector, pGAD, in-frame with the GAL4 activation domain. POTH1 deletion constructs were amplified by PCR, and cloned into pBridge (Clontech) in-frame with the GAL4 binding domain. Sequencing of selected cDNAs and constructs was performed at the Iowa State University DNA Facility. For deletion analysis, modified constructs of POTH1 were cloned into the pBridge vector for fusion with the DNA-binding domain of GAL4 (FIG. 10A). For StBEL-05, constructs were cloned into the pGAD vector for fusion with the activating domain of GAL4 (FIG. 10B). Deletion constructs were made from both the amino and carboxy termini. These mutants were then tested for interaction in the yeast two-hybrid system by cotransforming into yeast strain AH109 with the corresponding full-length partner (StBEL-05 in pGAL4 or POTH1 in pBridge). All constructs were sequenced to verify that they were in-frame. Positive interactions were verified for lacZ induction by using a β-galactosidase assay (Pierce Chemical Company). For POTH1, seven deletion constructs were tested (FIG. 10A). For the BEL TFs, a fusion construct of StBEL-05 (653 aa of StBEL-05 sequence) and nine deletion constructs were tested (FIG. 10B).

Chain of POTH1 (as listed by the source): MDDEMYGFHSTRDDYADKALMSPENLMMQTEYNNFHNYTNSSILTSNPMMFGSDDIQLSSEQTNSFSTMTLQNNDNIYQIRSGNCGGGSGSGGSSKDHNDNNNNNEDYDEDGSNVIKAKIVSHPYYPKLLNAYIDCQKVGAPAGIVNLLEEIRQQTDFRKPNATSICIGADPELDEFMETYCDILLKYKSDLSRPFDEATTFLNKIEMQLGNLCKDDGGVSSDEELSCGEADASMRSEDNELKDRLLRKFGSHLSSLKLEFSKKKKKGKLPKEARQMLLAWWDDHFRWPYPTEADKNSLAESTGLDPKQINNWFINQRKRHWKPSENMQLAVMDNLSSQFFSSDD

Molecule	interaction with POTH1
StBEL-30: BEL transcription factor from Solanum tuberosum, SEQ ID NO:14 (protein, listed as Solanum tuberosum) MATYFPSPNNQRDADQTFQYFRQSLPESYSEASNAPENMMVFMNYSSSGAYSDMLTGTSQQQHNCIDIPSIGATPFNTSQQEILSNLGGSQMGIQDFSSWRDSRNEMLADNVFQVAQNVQGQGLSLSLGSNIPSGIGISHVQSQNPNQGGGFNMSFGDGDNSQPKEQRNADYFPPDNPGRDLDAMKGYNSPYGTSSIARTIPSSKYLKAAQYLLDEVVSVRKAIKEQNSKKELTKDSRESDVDSKNISSDTPANGGSNPHESKNNQSELSPTEKQEVQNKLAKLLSMLDEIDRRYRQYYHQMQIVVSSFDVVAGEGAAKPYTALALQTISRHFRCLRDAICDQIRASRRSLGEQDASENSKAIGISRLRFVDHHIRQQRALQQLGMMQQHAWRPQRGLPESSVSVLRAWLFEHFLHPYPKDSDKIMLARQTGLTRSQVSNWFINARVRLWKPMVEEMYKEEAGDAKIDSNSSSDVAPRLATKDSKVEERGELHQNAASEFEQYNSGQILESKSNHEADVEMEGASNAETQSQSGMENQTGEPLPAMDNCTLFQDAFVQSNDRFSEFGSFGSGNVLPNGVSLTLGLQQGEGSNLPMSIETHVSYVPLRADDMYSTAPTTMVPETAEFNCLDSGNRQQPFWLLPSAT	showed selective interaction
pAD5-9: StBEL-05 deletion construct, aa 1 through 315 (protein, left off: large carriers) MNPNNYMQGYTTSDTQQQQQLLFLNSSPAASNALCHANIQHAPLQQQHFVGVPLPAVSLHDQINHHGLLQRMWNNQDQSQQVIVPSSTGVSATSCGGITTDLASQLAFQRPIPTPQHRQQQQQQGGLSLSLSPQLQQQISFNNNISSSSPRTNNVTIRGTLDGSSSNMVLGSKYLKAAQELLDEVVNIVGKSIKGDDQKKDNSMNKESMPLASDVNTNSSGGGESSSRQKNEVAVELTTAQRQELQMKKAKLLAMLEEVEQRYRQYHHQMQIIVLSFEQVAGIGSAKSYTQLALHAISKQFRCLKDAIAEQVKAT	interaction with POTH1
StBEL-14: BEL transcription factor from Solanum tuberosum, SEQ ID NO:8 (protein, listed as Solanum tuberosum) MVNHQLQNFETNPEMYNLSSTTSSMDQMIGFPPNNNNPHHVLWKGNFPNKINGVDDDDHGPSSSKNIISEQFYQHGSHENMLTTTTTHHDDHQGSWHHDNNRTLLVDDPSMRCVFPCEGNERPSHGLSLSLCSSNPSSIGLQSFELRHQDLQQGLIHDGFLGKSTNIQQGYFHHHHQVRDSKYLGPAQELLSEFCSLGIKKNNDHSSSKVLLKQHESTASTSKKQLLQSLDLLELQKRKTKLLQMLEEVDRRYKHYCDQMKAVVSSFEAVAGNGAATVYSALASRAMSRHFRCLRDGIVAQIKATKMAMGEKDSTSTLIPGSTRGETPRLRLLDQTLRQQKAFQQMNMMETHPWRPQRGLPERSVSVLRAWLFEHFLHPYPSDVDKHILARQTGLSRSQVSNWFINARVRLWKPMVEEMYLEETKEEENVGSPDGSKALIDDMTIHQSHIDHHQADQKPNLVRIDSECISSIINHQPHEKNDQNYGVIRGGDQSFGAIELDFSTNIAYGTSGGDHHHHGGGVSLTLGLQQHGGSGGSSMGLTTFSSQPSHNQSSLFYPRDDDQVQYSSLLDSENQNLPYRNLDGGTTSS	showed selective interaction
StBEL-13: BEL transcription factor from Solanum tuberosum, SEQ ID NO:6 (protein, listed as Solanum tuberosum) MVMGGGASSQQLGYAKNHTPNVAESMQLFLMNPQPRSPSPSPPNSTSSTLHMLLPNPSSTSTLQGFPNPAEGSFGQFITWGNGGASAATATHHLNAQNEIGGVNVVESQGLSLSLSSSLQHKAEELQMSGEAGGMMFFNQGGSSTSGQYRYKNLNMGGSGVSPNIHQVHVGYGSSLGVVNVLRNSKYAKAAQELLEEFCSVGRGKLKKTNNKAAANNPNTNPSGANNEASSKDVPTLSAADRIEHQRRKVKLLSMVDEVDRRYNHYCEQMQMVVNSFDLVMGFGTAVPYTALAQKAMSRHFRCLKDAIGAQLKQSCELLGEKDAGNSGLTKGETPRLKMLEQSLRQQRAFHQMGMMEQEAWRPQRGLPERSVNILRAWLFEHFLHPYPSDADKHLLARQTGLSRNQVSNWFINARVRLWKPMVEDMYQQEAKDEDGDGDEKSQSQNSGNNIIAQTPTPNSLTNTSSTNMTTTTAPTTTTALAAAETGTAATPITVTSSKRSQINATDSDPSLVAINSFSENQATFPTNIHDPDDCRRGNLSGDDGTTTHDHMGSTMIRFGTTAGDVSLTLGLRHAGNLPENTHFFG	showed selective interaction

More lines, now with the values ahead:

interaction with POTH1	Molecule
showed selective interaction	StBEL-29: BEL transcription factor from Solanum tuberosum, SEQ ID NO:12 (protein, listed as Solanum tuberosum) QGLSLSLSSSQQPGFGNFTAARELVSSPSGSASASGIQQQQQQQQSISSVPLSSKYMKAAQELLDEVVNVGKSMKSTNSTDVVVNNDVKKSKNMGDMDGQLDGVGADKDGAPTTELSTGERQEIQMKKAKLVNMLDEVEQRYRHYHHQMQSVIHWLEQAAGIGSAKTYTALALQTISKQFRCLKDAIIGQIRSASQTLGEEDSLGGKIEGSRLKFVDNQLRQQRALQQLGMIQHNAWRPQRGLPERAVSVLRAWLFEHFLHPYPKDSDKMMLAKQTGLTRSQVSNWFINARVRLWKPMVEEMYLEEIKEHEQNGLGQEKTSKLGEQNEDSTTSRSIATQDKSPGSDSQNKSFVSKQDNHLPQHNPASPMPDVQRHFHTPIGMTIRNQSAGFNLIGSPEIESINITQGSPKKPRNNEMLHSPNSIPSINMDVKPNEEQMSMKFGDDRQDRDGFSLMGGPMNFMGGFGAYPIGEIARFSTEQFSAPYSTSGTVSLTLGLPHNENLSMSATHHSFLPIPTQNIQIGSEPNHEFGSLNTPTSAHSTSSVYETFNIQNRKRFAAPLLPDFVA
showed selective interaction	StBEL-11: BEL transcription factor from Solanum tuberosum, SEQ ID NO:4 (protein, listed as Solanum tuberosum) MTFRSSLPLDLREISTTNHQVGILSSSPLPSPGTNTNNINHTRGLGASSSFSISNGMILGSKYLKVAQDLLDEVVNVGKNIKLSDGLESGAKEKHKLDNELISLASDDVESSSQKNSGVELTTAQRQELQMKKAKLVSMLDEVDQRYRQYHHQMQMIATSFEQTTGIGSSKSYTQLALHTISKQFRCLKDAISGQIKDTSKTLGEEENIGGKIEGSKLKFVDHHLRQQRALQQLGMMQTNAWKPQRGLPERAVSVLRAWLFEHFLHPYPKDSDKIILAKQTGLTRSQVSNWFINARVRLWKPMVEEMYMEEVKKNNQEQNIEPNNNEIVGSKSSVPQEKLPISSNIIHNASPNDISTSTISTSPTGGGGSIPTQTVAGFSFIRSLNMENIDDQRNNKKARNEMQNCSTSTILSMEREIINKVVQDETIKSEKFNNTQTRECYSLMTPNYTMDDQFGTRFNNQNHEQLATTTTFHQGNGHVSLTLGLPPNSENQHNYIGLENHYNQPTHHPNISYENIDFQSGKRYATQLLQDFVS
showed selective interaction	StBEL-22: BEL transcription factor from Solanum tuberosum, SEQ ID NO:10 (protein, listed as Solanum tuberosum) TSVYETAGLLSEMFNFQTTSTAATELLQNQLSNNYRHPNQQPHHQPPTREWFGNRQEIVVGGSLQVTFGDTKDDVNAKVLLSNRDSVTDYYQRQHNQVPSINTAESMQLFLMNPQPSSPSQSTPSTLHQGFSSPVGGHFSQFMCGGASTSSNPIGGVNVIDQGQGLSLSLSSTLQHLEASKVEDLRMNSGGEMLFFNQESQNHHNIGFGSSLGLVNVLRNSKYVKATQELLEEFCCVGKGQLFKKINKVSRNNNTSTSPIINPSGSNNNNSSSSKAIIPPNLSTAERLDHQRRKVKLLSMLDEVEKRYNHYCEQMQMVVNSFDLVMGFGAAVPYTALAQKAMSRHFKCLKDGVAAQLKKTCEALGEKDASSSSGLTKGETPRLKVLEQSLRQQRAFQQMGMMEQEAWRPQRGLPERSVNILRAWLFEHFLHPYPSDADKHLLARQTGLSRNQVANWFINARVRLWKPMVEEMYQREVNEDDVDDMQENQNSTNTQIPTPNIIITTNSNITETKSAATATIASDKKPQINVSEIDPSIVAMNTHYSSSMPTQLTNFPTIQDESDHILYRRSGAEYGTTNMASNSEIGSNMITFGTTTASDVSLTLGLRHAGNLPENTHFSG
